# Reference: the Human Domainome abundance scans (Beltran et al. 2025)
# ± gives the uncertainty stated by the source.
# B1: Segment polarity protein dishevelled homolog DVL-3, residues 2 to 81; numbered along this chain, Q92997 (parent)
# chain: GETKIIYHLDGQETPYLVKLPLPAERVTLADFKGVLQRPSYKFFFKSMDDDFGVVKEEISDDNAKLPCFNGRVVSWLVSA
# Variants of: B1
# Experiment: abundance fitness (aPCA) (normalised: wild type 0, dead -1); higher = more abundant; growth selection in yeast, the domain comes from the species named
# Conditions: Homo sapiens
row,Variant,abundance fitness
1,GETKIIYHLDGQETPYLVKLPLPAEAVTLADFKGVLQRPSYKFFFKSMDDDFGVVKEEISDDNAKLPCFNGRVVSWLVSA [R26A],0.027 ± 0.053
2,GETKIIYHLDGQETPYLVKLPWPAERVTLADFKGVLQRPSYKFFFKSMDDDFGVVKEEISDDNAKLPCFNGRVVSWLVSA [L22W],-0.578 ± 0.084
3,GETKIIYHLDGQETPYLVKLPQPAERVTLADFKGVLQRPSYKFFFKSMDDDFGVVKEEISDDNAKLPCFNGRVVSWLVSA [L22Q],-0.429 ± 0.1
4,GETKIIYHLDGQETPYLVKLPHPAERVTLADFKGVLQRPSYKFFFKSMDDDFGVVKEEISDDNAKLPCFNGRVVSWLVSA [L22H],-0.617 ± 0.17
5,GETKIIYHLDGQETPYLVKLPGPAERVTLADFKGVLQRPSYKFFFKSMDDDFGVVKEEISDDNAKLPCFNGRVVSWLVSA [L22G],-0.856 ± 0.083
6,GETKIIYHLDGQETPYLVKLPFPAERVTLADFKGVLQRPSYKFFFKSMDDDFGVVKEEISDDNAKLPCFNGRVVSWLVSA [L22F],-0.502 ± 0.17
7,GETKIIYHLDGQETPYLVKLPKPAERVTLADFKGVLQRPSYKFFFKSMDDDFGVVKEEISDDNAKLPCFNGRVVSWLVSA [L22K],-0.019 ± 0.068
8,GETKIIYHLDGQETPYLVKLPSPAERVTLADFKGVLQRPSYKFFFKSMDDDFGVVKEEISDDNAKLPCFNGRVVSWLVSA [L22S],-0.822 ± 0.1
9,GETKIIYHLDGQETPYLVKLPPPAERVTLADFKGVLQRPSYKFFFKSMDDDFGVVKEEISDDNAKLPCFNGRVVSWLVSA [L22P],-0.645 ± 0.12
10,GETKIIYHLDGQETPYLVKLPTPAERVTLADFKGVLQRPSYKFFFKSMDDDFGVVKEEISDDNAKLPCFNGRVVSWLVSA [L22T],-0.598 ± 0.11
11,GETKIIYHLDGQETPYLVKLPRPAERVTLADFKGVLQRPSYKFFFKSMDDDFGVVKEEISDDNAKLPCFNGRVVSWLVSA [L22R],-0.656 ± 0.071
12,GETKIIYHLDGQETPYLVKLPNPAERVTLADFKGVLQRPSYKFFFKSMDDDFGVVKEEISDDNAKLPCFNGRVVSWLVSA [L22N],-0.923 ± 0.24
13,GETKIIYHLDGQETPYLVKLPVPAERVTLADFKGVLQRPSYKFFFKSMDDDFGVVKEEISDDNAKLPCFNGRVVSWLVSA [L22V],0.059 ± 0.047
14,GETKIIYHLDGQETPYLVKLPMPAERVTLADFKGVLQRPSYKFFFKSMDDDFGVVKEEISDDNAKLPCFNGRVVSWLVSA [L22M],-0.017 ± 0.073
15,GETKIIYHLDGQETPYLVKLPLPPERVTLADFKGVLQRPSYKFFFKSMDDDFGVVKEEISDDNAKLPCFNGRVVSWLVSA [A24P],0.17 ± 0.062
16,GETKIIYHLDGQETPYLVKLPLPVERVTLADFKGVLQRPSYKFFFKSMDDDFGVVKEEISDDNAKLPCFNGRVVSWLVSA [A24V],-0.42 ± 0.074
17,GETKIIYHLDGQETPYLVKLPLPTERVTLADFKGVLQRPSYKFFFKSMDDDFGVVKEEISDDNAKLPCFNGRVVSWLVSA [A24T],-0.51 ± 0.11
18,GETKIIYHLDGQETPYLVKLPLPNERVTLADFKGVLQRPSYKFFFKSMDDDFGVVKEEISDDNAKLPCFNGRVVSWLVSA [A24N],-0.415 ± 0.15
19,GETKIIYHLDGQETPYLVKLPLPSERVTLADFKGVLQRPSYKFFFKSMDDDFGVVKEEISDDNAKLPCFNGRVVSWLVSA [A24S],-0.03 ± 0.056
20,GETKIIYHLDGQETPYLVKLPLPWERVTLADFKGVLQRPSYKFFFKSMDDDFGVVKEEISDDNAKLPCFNGRVVSWLVSA [A24W],-0.235 ± 0.08
21,GETKIIYHLDGQETPYLVKLPLPHERVTLADFKGVLQRPSYKFFFKSMDDDFGVVKEEISDDNAKLPCFNGRVVSWLVSA [A24H],-0.505 ± 0.17
22,GETKIIYHLDGQETPYLVKLPLPEERVTLADFKGVLQRPSYKFFFKSMDDDFGVVKEEISDDNAKLPCFNGRVVSWLVSA [A24E],-0.415 ± 0.087
23,GETKIIYHLDGQETPYLVKLPLPLERVTLADFKGVLQRPSYKFFFKSMDDDFGVVKEEISDDNAKLPCFNGRVVSWLVSA [A24L],-0.356 ± 0.063

row,Variant,abundance fitness
1,GETKIIYHLDGQETPYLVKLPLPRERVTLADFKGVLQRPSYKFFFKSMDDDFGVVKEEISDDNAKLPCFNGRVVSWLVSA [A24R],-0.492 ± 0.062
2,GETKIIYHLDGQETPYLVKLPLPCERVTLADFKGVLQRPSYKFFFKSMDDDFGVVKEEISDDNAKLPCFNGRVVSWLVSA [A24C],-0.107 ± 0.088
3,GETKIIYHLDGQETPYLVKLPLPQERVTLADFKGVLQRPSYKFFFKSMDDDFGVVKEEISDDNAKLPCFNGRVVSWLVSA [A24Q],-0.074 ± 0.084
4,GETKIIYHLDGQETPYLVKLPLPKERVTLADFKGVLQRPSYKFFFKSMDDDFGVVKEEISDDNAKLPCFNGRVVSWLVSA [A24K],-0.174 ± 0.1
5,GETKIIYHLDGQETPYLVKLPLPIERVTLADFKGVLQRPSYKFFFKSMDDDFGVVKEEISDDNAKLPCFNGRVVSWLVSA [A24I],-0.431 ± 0.18
6,GETKIIYHLDGQETPYLVKLPLPGERVTLADFKGVLQRPSYKFFFKSMDDDFGVVKEEISDDNAKLPCFNGRVVSWLVSA [A24G],-0.168 ± 0.048
7,GETKIIYHLDGQETPYLVKLPLPMERVTLADFKGVLQRPSYKFFFKSMDDDFGVVKEEISDDNAKLPCFNGRVVSWLVSA [A24M],-0.546 ± 0.15
8,GETKIIYHLDGQETPYLVKLPLPDERVTLADFKGVLQRPSYKFFFKSMDDDFGVVKEEISDDNAKLPCFNGRVVSWLVSA [A24D],-0.54 ± 0.15
9,GETKIIYHLDGQETPYLVKLPLPYERVTLADFKGVLQRPSYKFFFKSMDDDFGVVKEEISDDNAKLPCFNGRVVSWLVSA [A24Y],-0.325 ± 0.15
10,GETKIIYHLDGQETPYLVKLPLPFERVTLADFKGVLQRPSYKFFFKSMDDDFGVVKEEISDDNAKLPCFNGRVVSWLVSA [A24F],-0.549 ± 0.15
11,GETKIIYHLDGQETPYLVKLPLGAERVTLADFKGVLQRPSYKFFFKSMDDDFGVVKEEISDDNAKLPCFNGRVVSWLVSA [P23G],-0.73 ± 0.082
12,GETKIIYHLDGQETPYLVKLPLWAERVTLADFKGVLQRPSYKFFFKSMDDDFGVVKEEISDDNAKLPCFNGRVVSWLVSA [P23W],-0.863 ± 0.14
13,GETKIIYHLDGQETPYLVKLPLFAERVTLADFKGVLQRPSYKFFFKSMDDDFGVVKEEISDDNAKLPCFNGRVVSWLVSA [P23F],-0.405 ± 0.14
14,GETKIIYHLDGQETPYLVKLPLMAERVTLADFKGVLQRPSYKFFFKSMDDDFGVVKEEISDDNAKLPCFNGRVVSWLVSA [P23M],-0.972 ± 0.2
15,GETKIIYHLDGQETPYLVKLPLCAERVTLADFKGVLQRPSYKFFFKSMDDDFGVVKEEISDDNAKLPCFNGRVVSWLVSA [P23C],-0.79 ± 0.18
16,GETKIIYHLDGQETPYLVKLPLKAERVTLADFKGVLQRPSYKFFFKSMDDDFGVVKEEISDDNAKLPCFNGRVVSWLVSA [P23K],-0.671 ± 0.12
17,GETKIIYHLDGQETPYLVKLPLLAERVTLADFKGVLQRPSYKFFFKSMDDDFGVVKEEISDDNAKLPCFNGRVVSWLVSA [P23L],-0.682 ± 0.1
18,GETKIIYHLDGQETPYLVKLPLEAERVTLADFKGVLQRPSYKFFFKSMDDDFGVVKEEISDDNAKLPCFNGRVVSWLVSA [P23E],-0.383 ± 0.085
19,GETKIIYHLDGQETPYLVKLPLTAERVTLADFKGVLQRPSYKFFFKSMDDDFGVVKEEISDDNAKLPCFNGRVVSWLVSA [P23T],-0.862 ± 0.14
20,GETKIIYHLDGQETPYLVKLPLRAERVTLADFKGVLQRPSYKFFFKSMDDDFGVVKEEISDDNAKLPCFNGRVVSWLVSA [P23R],-0.625 ± 0.069
21,GETKIIYHLDGQETPYLVKLPLVAERVTLADFKGVLQRPSYKFFFKSMDDDFGVVKEEISDDNAKLPCFNGRVVSWLVSA [P23V],-0.739 ± 0.1
22,GETKIIYHLDGQETPYLVKLPLIAERVTLADFKGVLQRPSYKFFFKSMDDDFGVVKEEISDDNAKLPCFNGRVVSWLVSA [P23I],-0.112 ± 0.14
23,GETKIIYHLDGQETPYLVKLPLHAERVTLADFKGVLQRPSYKFFFKSMDDDFGVVKEEISDDNAKLPCFNGRVVSWLVSA [P23H],-0.55 ± 0.18

row,Variant,abundance fitness
1,GETKIIYHLDGQETPYLVKLPLQAERVTLADFKGVLQRPSYKFFFKSMDDDFGVVKEEISDDNAKLPCFNGRVVSWLVSA [P23Q],-0.731 ± 0.13
2,GETKIIYHLDGQETPYLVKLPLYAERVTLADFKGVLQRPSYKFFFKSMDDDFGVVKEEISDDNAKLPCFNGRVVSWLVSA [P23Y],-0.517 ± 0.21
3,GETKIIYHLDGQETPYLVKLPLNAERVTLADFKGVLQRPSYKFFFKSMDDDFGVVKEEISDDNAKLPCFNGRVVSWLVSA [P23N],-0.833 ± 0.23
4,GETKIIYHLDGQETPYLVKLPLAAERVTLADFKGVLQRPSYKFFFKSMDDDFGVVKEEISDDNAKLPCFNGRVVSWLVSA [P23A],-0.395 ± 0.089
5,GETKIIYHLDGQETPYLVKLPLDAERVTLADFKGVLQRPSYKFFFKSMDDDFGVVKEEISDDNAKLPCFNGRVVSWLVSA [P23D],-0.469 ± 0.13
6,GETKIIYHLDGQETPYLVKLPLPAYRVTLADFKGVLQRPSYKFFFKSMDDDFGVVKEEISDDNAKLPCFNGRVVSWLVSA [E25Y],-0.501 ± 0.14
7,GETKIIYHLDGQETPYLVKLPLPAVRVTLADFKGVLQRPSYKFFFKSMDDDFGVVKEEISDDNAKLPCFNGRVVSWLVSA [E25V],-0.807 ± 0.12
8,GETKIIYHLDGQETPYLVKLPLPAHRVTLADFKGVLQRPSYKFFFKSMDDDFGVVKEEISDDNAKLPCFNGRVVSWLVSA [E25H],-0.022 ± 0.098
9,GETKIIYHLDGQETPYLVKLPLPAFRVTLADFKGVLQRPSYKFFFKSMDDDFGVVKEEISDDNAKLPCFNGRVVSWLVSA [E25F],-0.913 ± 0.22
10,GETKIIYHLDGQETPYLVKLPLPAKRVTLADFKGVLQRPSYKFFFKSMDDDFGVVKEEISDDNAKLPCFNGRVVSWLVSA [E25K],-0.474 ± 0.11
11,GETKIIYHLDGQETPYLVKLPLPANRVTLADFKGVLQRPSYKFFFKSMDDDFGVVKEEISDDNAKLPCFNGRVVSWLVSA [E25N],-0.006 ± 0.095
12,GETKIIYHLDGQETPYLVKLPLPAGRVTLADFKGVLQRPSYKFFFKSMDDDFGVVKEEISDDNAKLPCFNGRVVSWLVSA [E25G],-0.096 ± 0.048
13,GETKIIYHLDGQETPYLVKLPLPASRVTLADFKGVLQRPSYKFFFKSMDDDFGVVKEEISDDNAKLPCFNGRVVSWLVSA [E25S],-0.115 ± 0.064
14,GETKIIYHLDGQETPYLVKLPLPAIRVTLADFKGVLQRPSYKFFFKSMDDDFGVVKEEISDDNAKLPCFNGRVVSWLVSA [E25I],-0.658 ± 0.25
15,GETKIIYHLDGQETPYLVKLPLPARRVTLADFKGVLQRPSYKFFFKSMDDDFGVVKEEISDDNAKLPCFNGRVVSWLVSA [E25R],-0.59 ± 0.072
16,GETKIIYHLDGQETPYLVKLPLPACRVTLADFKGVLQRPSYKFFFKSMDDDFGVVKEEISDDNAKLPCFNGRVVSWLVSA [E25C],-0.035 ± 0.083
17,GETKIIYHLDGQETPYLVKLPLPAMRVTLADFKGVLQRPSYKFFFKSMDDDFGVVKEEISDDNAKLPCFNGRVVSWLVSA [E25M],-0.335 ± 0.22
18,GETKIIYHLDGQETPYLVKLPLPAARVTLADFKGVLQRPSYKFFFKSMDDDFGVVKEEISDDNAKLPCFNGRVVSWLVSA [E25A],-0.252 ± 0.07
19,GETKIIYHLDGQETPYLVKLPLPAQRVTLADFKGVLQRPSYKFFFKSMDDDFGVVKEEISDDNAKLPCFNGRVVSWLVSA [E25Q],-0.389 ± 0.1
20,GETKIIYHLDGQETPYLVKLPLPAWRVTLADFKGVLQRPSYKFFFKSMDDDFGVVKEEISDDNAKLPCFNGRVVSWLVSA [E25W],-0.457 ± 0.095
21,GETKIIYHLDGQETPYLVKLPLPALRVTLADFKGVLQRPSYKFFFKSMDDDFGVVKEEISDDNAKLPCFNGRVVSWLVSA [E25L],-0.825 ± 0.12
22,GETKIIYHLDGQETPYLVKLPLPAPRVTLADFKGVLQRPSYKFFFKSMDDDFGVVKEEISDDNAKLPCFNGRVVSWLVSA [E25P],-0.965 ± 0.19
23,GETKIIYHLDGQETPYLVKLPLPATRVTLADFKGVLQRPSYKFFFKSMDDDFGVVKEEISDDNAKLPCFNGRVVSWLVSA [E25T],-0.356 ± 0.12
